From PMC6408234 come the findings set out here.

In test [1] the target is C-C-locked R4-MHC (disulfide-bond-locked MHC mutant) (mouse | human). Put plainly: biomembrane force probe.
Test [2] addresses 9C-HLA-A2 (NY-ESO-1 157-165 peptide … on HLA-A*02:01 with human β2m). Nature of the test: biomembrane force probe.

In test [1], 2C TCR (wild type) had a fold reduction of the optimal bond lifetime against R4-MHC of 2 fold.
The substance 1G4 TCR gave a peak bond lifetime (at ~10 pN force) in test [2] of 1 s.
